In patent publication US20090075904A1 (CAMPINA NEDERLAND HOLDING B V, published 2009):

Legend:
[1] = molecular target: T1, Dipeptidyl peptidase IV (DPP-IV) (UniProt P22411 38-766, limits assumed); test: cell-based or functional assay
[2] = molecular target: T1, Dipeptidyl peptidase IV (DPP-IV); test: cell-based or functional assay; remark: listed apart in the source

T1 sequence (P22411 38-766 limits assumed): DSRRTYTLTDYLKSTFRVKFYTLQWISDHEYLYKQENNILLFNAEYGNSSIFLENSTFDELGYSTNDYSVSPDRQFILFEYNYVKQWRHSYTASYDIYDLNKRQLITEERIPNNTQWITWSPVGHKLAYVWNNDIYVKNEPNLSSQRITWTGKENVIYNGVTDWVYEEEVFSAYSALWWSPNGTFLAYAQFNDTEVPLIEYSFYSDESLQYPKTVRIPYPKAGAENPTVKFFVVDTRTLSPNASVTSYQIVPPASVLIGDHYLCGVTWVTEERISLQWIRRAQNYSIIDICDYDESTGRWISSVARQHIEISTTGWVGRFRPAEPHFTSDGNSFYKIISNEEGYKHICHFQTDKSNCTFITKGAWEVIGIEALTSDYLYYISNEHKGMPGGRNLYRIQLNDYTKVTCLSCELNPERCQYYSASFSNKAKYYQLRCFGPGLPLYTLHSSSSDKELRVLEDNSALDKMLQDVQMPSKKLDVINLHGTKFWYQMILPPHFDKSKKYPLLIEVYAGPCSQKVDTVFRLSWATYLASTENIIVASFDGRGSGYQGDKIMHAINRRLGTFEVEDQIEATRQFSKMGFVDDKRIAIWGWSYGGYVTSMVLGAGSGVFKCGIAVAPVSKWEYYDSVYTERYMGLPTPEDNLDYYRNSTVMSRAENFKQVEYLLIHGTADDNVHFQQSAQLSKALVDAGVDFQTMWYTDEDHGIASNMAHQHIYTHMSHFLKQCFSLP

Binder | RELATIVE POTENCY [%] (DPP-IV inhibition assay, Gly-Pro-p-nitroanilide conversion, on-line LC-BCD-MS) [1] | IC50 of DPP-IV inhibition (estimated from relative potency) [2] [µM]
VPYPQ | 51 | 
APFPEVF | 6 | ~120
LPL | 100 | ~5
PLLQ | 37 | 
LPQYL | 26 | 
VPLGTQ | 55 | 
LPVP | 15 | 
PQSVLS | 20 | 
MPLW | 23 | 

Results, then the binder that gave them:

RELATIVE POTENCY [%] (DPP-IV inhibition assay, Gly-Pro-p-nitroanilide conversion, on-line LC-BCD-MS) [1] | IC50 of DPP-IV inhibition (estimated from relative potency) [2] [µM] | Binder
12 |  | EMPFPK
34 |  | GPFP
98 |  | KVLP
20 |  | PFP
9 |  | APFPE
100 | ~5 | IPI
9 |  | GPFPIIV
6 | ~120 | HPIK
11 |  | LPLP
63 |  | LPVPQK
28 |  | LPVPQ
20 |  | YVPEPF
